Measured values from paper PMC7116848 (Nature, 2019).

Experiments:
Mgm1 (truncated s-Mgm1) = target: T1, Mgm1 (truncated s-Mgm1) (Thermochaetoides thermophila, UniProt G0SGC7); test: isothermal titration calorimetry; assay type: binding
T1 sequence (G0SGC7 219-912): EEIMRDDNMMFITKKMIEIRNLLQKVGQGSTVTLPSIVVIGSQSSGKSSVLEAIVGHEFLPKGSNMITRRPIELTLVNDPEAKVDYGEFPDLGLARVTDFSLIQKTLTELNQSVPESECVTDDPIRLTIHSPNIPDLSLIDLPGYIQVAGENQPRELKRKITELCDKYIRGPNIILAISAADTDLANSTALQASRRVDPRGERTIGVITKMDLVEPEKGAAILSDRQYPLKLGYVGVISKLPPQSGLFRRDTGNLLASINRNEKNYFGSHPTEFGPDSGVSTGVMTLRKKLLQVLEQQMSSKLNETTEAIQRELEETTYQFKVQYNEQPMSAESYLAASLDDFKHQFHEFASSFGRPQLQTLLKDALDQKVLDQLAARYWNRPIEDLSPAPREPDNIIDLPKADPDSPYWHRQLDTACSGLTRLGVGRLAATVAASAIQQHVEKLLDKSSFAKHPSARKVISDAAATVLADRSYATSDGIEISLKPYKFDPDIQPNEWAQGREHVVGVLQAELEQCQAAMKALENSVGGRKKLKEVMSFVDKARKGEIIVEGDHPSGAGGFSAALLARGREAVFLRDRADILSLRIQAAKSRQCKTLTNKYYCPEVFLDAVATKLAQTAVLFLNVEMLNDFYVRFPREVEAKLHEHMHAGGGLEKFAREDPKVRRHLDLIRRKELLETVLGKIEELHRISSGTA

AUC = target: the molecule itself; test: AUC
crystal structure = target: the molecule itself; test: crystal structure

Molecule: Nc1nc2c(ncn2[C@@H]2O[C@H](COP(=O)(O)OP(=O)(O)OP(O)(O)=S)[C@@H](O)[C@H]2O)c(=O)[nH]1 [GTPγS]
- Kd (Mgm1 (truncated s-Mgm1)): 9 ± 3 µM

B1: Chaetomium thermophilum Mgm1 (amino acids 219-912), truncated s-Mgm1 isoform (domain or fragment, UniProt G0SGC7 219-912, looked up)
chain: T1 sequence (G0SGC7 219-912)
- Kd (AUC): 1 µM

B2: Seleno-methionine substituted Chaetomium thermophilum Mgm1 (amino acids 219-912) (domain or fragment, UniProt G0SGC7 219-912, looked up)
chain: T1 sequence (G0SGC7 219-912)
modifications: seleno-methionine substituted for methionine
- binding result (crystal structure): binds
